Reference: patent US20210284734A1 (SYMPHOGEN A S, published 2021)
One block for each binder: values may come before it.

Experiments:
[1] = molecular target: T1, human PD-1 ECD Fc fusion, wild-type (human, UniProt Q15116 21-170); assay: SPR, Fab on captured wild-type PD-1-Fc; row head prints (nM), values evidently in M
T1 construct: also called Hu PD-1 ECD wild-type; hu PD-1 ECD; not shown: human IgG1 Fc, residues P101-K330

human PD-1 ECD-Fc Q133A = molecular target: T2, human PD-1 ECD-Fc Q133A (human, UniProt Q15116 21-170); assay: SPR, Fab on captured PD-1-Fc;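 also: Alanine-scan PD-1 Fc fusions expressed transiently in ExpiCHO, captured on anti-human IgG Fc surface in IBIS MX96, anti-PD-1 Fab association 15 min, dissociation 30 min, Langmuir 1:1 fit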
T2 construct: not shown: human IgG1 Fc, residues P101-K330
T2 sequence (Q15116 21-170 Q133A): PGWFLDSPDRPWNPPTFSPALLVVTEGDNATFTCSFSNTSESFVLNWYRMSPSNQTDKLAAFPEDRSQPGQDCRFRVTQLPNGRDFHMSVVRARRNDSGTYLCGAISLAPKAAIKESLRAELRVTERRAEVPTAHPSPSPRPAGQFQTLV

human PD-1 ECD-Fc P21A = molecular target: T3, human PD-1 ECD-Fc P21A (human, UniProt Q15116 22-170); assay: SPR, Fab on captured PD-1-Fc;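 also: Alanine-scan PD-1 Fc fusions expressed transiently in ExpiCHO, captured on anti-human IgG Fc surface in IBIS MX96, anti-PD-1 Fab association 15 min, dissociation 30 min, Langmuir 1:1 fit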
T3 construct: not shown: human IgG1 Fc, residues P101-K330
T3 sequence (Q15116 21-170 P21A): as the sequence (Q15116 21-170 Q133A) above, with P1A, A113Q counted along it

human PD-1 ECD-Fc N66A = molecular target: T4, human PD-1 ECD-Fc N66A (human, UniProt Q15116 21-170); assay: SPR, Fab on captured PD-1-Fc;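 also: Alanine-scan PD-1 Fc fusions expressed transiently in ExpiCHO, captured on anti-human IgG Fc surface in IBIS MX96, anti-PD-1 Fab association 15 min, dissociation 30 min, Langmuir 1:1 fit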
T4 construct: not shown: human IgG1 Fc, residues P101-K330
T4 sequence (Q15116 21-170 N66A): as the sequence (Q15116 21-170 Q133A) above, with N46A, A113Q counted along it

human PD-1 ECD-Fc Y68A = molecular target: T5, human PD-1 ECD-Fc Y68A (human, UniProt Q15116 21-170); assay: SPR, Fab on captured PD-1-Fc;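 also: Alanine-scan PD-1 Fc fusions expressed transiently in ExpiCHO, captured on anti-human IgG Fc surface in IBIS MX96, anti-PD-1 Fab association 15 min, dissociation 30 min, Langmuir 1:1 fit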
T5 construct: not shown: human IgG1 Fc, residues P101-K330
T5 sequence (Q15116 21-170 Y68A): as the sequence (Q15116 21-170 Q133A) above, with Y48A, A113Q counted along it

human PD-1 ECD-Fc E150A = molecular target: T6, human PD-1 ECD-Fc E150A (human, UniProt Q15116 21-170); assay: SPR, Fab on captured PD-1-Fc
T6 construct: not shown: human IgG1 Fc, residues P101-K330
T6 sequence (Q15116 21-170 E150A): as the sequence (Q15116 21-170 Q133A) above, with A113Q, E130A counted along it

human PD-1 ECD-Fc S157R = molecular target: T7, human PD-1 ECD-Fc S157R (human, UniProt Q15116 21-170); assay: SPR, Fab on captured PD-1-Fc
T7 construct: also called Rat mutation S157R; not shown: human IgG1 Fc, residues P101-K330
T7 sequence (Q15116 21-170 S157R): as the sequence (Q15116 21-170 Q133A) above, with A113Q, S137R counted along it

human PD-1 ECD-Fc A132G = molecular target: T8, human PD-1 ECD-Fc A132G (human, UniProt Q15116 21-170); assay: SPR, Fab on captured PD-1-Fc
T8 construct: not shown: human IgG1 Fc, residues P101-K330
T8 sequence (Q15116 21-170 A132G): as the sequence (Q15116 21-170 Q133A) above, with A112G, A113Q counted along it

human PD-1 ECD-Fc P158A = molecular target: T9, human PD-1 ECD-Fc P158A (human, UniProt Q15116 21-170); assay: SPR, Fab on captured PD-1-Fc
T9 construct: not shown: human IgG1 Fc, residues P101-K330
T9 sequence (Q15116 21-170 P158A): as the sequence (Q15116 21-170 Q133A) above, with A113Q, P138A counted along it

human PD-1 ECD-Fc P156A = molecular target: T10, human PD-1 ECD-Fc P156A (human, UniProt Q15116 21-170); assay: SPR, Fab on captured PD-1-Fc
T10 construct: not shown: human IgG1 Fc, residues P101-K330
T10 sequence (Q15116 21-170 P156A): as the sequence (Q15116 21-170 Q133A) above, with A113Q, P136A counted along it

human PD-1 ECD-Fc L138A = molecular target: T11, human PD-1 ECD-Fc L138A (human, UniProt Q15116 21-170); assay: SPR, Fab on captured PD-1-Fc
T11 construct: not shown: human IgG1 Fc, residues P101-K330

human PD-1 ECD-Fc N102A = molecular target: T12, human PD-1 ECD-Fc N102A (human, UniProt Q15116 21-170); assay: SPR, Fab on captured PD-1-Fc
T12 construct: not shown: human IgG1 Fc, residues P101-K330
T12 sequence (Q15116 21-170 N102A): as the sequence (Q15116 21-170 Q133A) above, with N82A, A113Q counted along it

human PD-1 ECD-Fc E84A = molecular target: T13, human PD-1 ECD-Fc E84A (human, UniProt Q15116 21-170); assay: SPR, Fab on captured PD-1-Fc
T13 construct: not shown: human IgG1 Fc, residues P101-K330

human PD-1 ECD-Fc A40T = molecular target: T14, human PD-1 ECD-Fc A40T (human, UniProt Q15116 21-170); assay: SPR, Fab on captured PD-1-Fc
T14 construct: also called Rat mutation A40T; not shown: human IgG1 Fc, residues P101-K330

human PD-1 ECD-Fc A80G = molecular target: T15, human PD-1 ECD-Fc A80G (human, UniProt Q15116 21-170); assay: SPR, Fab on captured PD-1-Fc
T15 construct: not shown: human IgG1 Fc, residues P101-K330
T15 sequence (Q15116 21-170 A80G): as the sequence (Q15116 21-170 Q133A) above, with A60G, A113Q counted along it

human PD-1 ECD-Fc D92A = molecular target: T16, human PD-1 ECD-Fc D92A (human, UniProt Q15116 21-170); assay: SPR, Fab on captured PD-1-Fc
T16 construct: not shown: human IgG1 Fc, residues P101-K330
T16 sequence (Q15116 21-170 D92A): as the sequence (Q15116 21-170 Q133A) above, with D72A, A113Q counted along it

human PD-1 ECD-Fc Q91A = molecular target: T17, human PD-1 ECD-Fc Q91A (human, UniProt Q15116 21-170); assay: SPR, Fab on captured PD-1-Fc
T17 construct: not shown: human IgG1 Fc, residues P101-K330
T17 sequence (Q15116 21-170 Q91A): as the sequence (Q15116 21-170 Q133A) above, with Q71A, A113Q counted along it

human PD-1 ECD-Fc T145A = molecular target: T18, human PD-1 ECD-Fc T145A (human, UniProt Q15116 21-170); assay: SPR, Fab on captured PD-1-Fc
T18 construct: not shown: human IgG1 Fc, residues P101-K330

human PD-1 ECD-Fc K78A = molecular target: T19, human PD-1 ECD-Fc K78A (human, UniProt Q15116 21-170); assay: SPR, Fab on captured PD-1-Fc
T19 construct: not shown: human IgG1 Fc, residues P101-K330
T19 sequence (Q15116 21-170 K78A): as the sequence (Q15116 21-170 Q133A) above, with K58A, A113Q counted along it

human PD-1 ECD-Fc S27A = molecular target: T20, human PD-1 ECD-Fc S27A (human, UniProt Q15116 21-170); assay: SPR, Fab on captured PD-1-Fc
T20 construct: not shown: human IgG1 Fc, residues P101-K330
T20 sequence (Q15116 21-170 S27A): as the sequence (Q15116 21-170 Q133A) above, with S7A, A113Q counted along it

human PD-1 ECD-Fc E146A = molecular target: T21, human PD-1 ECD-Fc E146A (human, UniProt Q15116 21-170); assay: SPR, Fab on captured PD-1-Fc
T21 construct: not shown: human IgG1 Fc, residues P101-K330
T21 sequence (Q15116 21-170 E146A): as the sequence (Q15116 21-170 Q133A) above, with A113Q, E126A counted along it

human PD-1 ECD-Fc S57A = molecular target: T22, human PD-1 ECD-Fc S57A (human, UniProt Q15116 21-170); assay: SPR, Fab on captured PD-1-Fc
T22 construct: not shown: human IgG1 Fc, residues P101-K330
T22 sequence (Q15116 21-170 S57A): as the sequence (Q15116 21-170 Q133A) above, with S37A, A113Q counted along it

human PD-1 ECD-Fc G47A = molecular target: T23, human PD-1 ECD-Fc G47A (human, UniProt Q15116 21-170); assay: SPR, Fab on captured PD-1-Fc
T23 construct: not shown: human IgG1 Fc, residues P101-K330

human PD-1 ECD-Fc K135A = molecular target: T24, human PD-1 ECD-Fc K135A (human, UniProt Q15116 21-170); assay: SPR, Fab on captured PD-1-Fc
T24 construct: not shown: human IgG1 Fc, residues P101-K330
T24 sequence (Q15116 21-170 K135A): as the sequence (Q15116 21-170 Q133A) above, with A113Q, K115A counted along it

human PD-1 ECD-Fc Q75A = molecular target: T25, human PD-1 ECD-Fc Q75A (human, UniProt Q15116 21-170); assay: SPR, Fab on captured PD-1-Fc
T25 construct: not shown: human IgG1 Fc, residues P101-K330
T25 sequence (Q15116 21-170 Q75A): as the sequence (Q15116 21-170 Q133A) above, with Q55A, A113Q counted along it

human PD-1 ECD-Fc N33A = molecular target: T26, human PD-1 ECD-Fc N33A (human, UniProt Q15116 21-170); assay: SPR, Fab on captured PD-1-Fc
T26 construct: not shown: human IgG1 Fc, residues P101-K330

human PD-1 ECD-Fc F56A = molecular target: T27, human PD-1 ECD-Fc F56A (human, UniProt Q15116 21-170); assay: SPR, Fab on captured PD-1-Fc
T27 construct: not shown: human IgG1 Fc, residues P101-K330
T27 sequence (Q15116 21-170 F56A): as the sequence (Q15116 21-170 Q133A) above, with F36A, A113Q counted along it

human PD-1 ECD-Fc G124A = molecular target: T28, human PD-1 ECD-Fc G124A (human, UniProt Q15116 21-170); assay: SPR, Fab on captured PD-1-Fc
T28 construct: not shown: human IgG1 Fc, residues P101-K330
T28 sequence (Q15116 21-170 G124A): as the sequence (Q15116 21-170 Q133A) above, with G104A, A113Q counted along it

human PD-1 ECD-Fc N49A = molecular target: T29, human PD-1 ECD-Fc N49A (human, UniProt Q15116 21-170); assay: SPR, Fab on captured PD-1-Fc
T29 construct: not shown: human IgG1 Fc, residues P101-K330
T29 sequence (Q15116 21-170 N49A): as the sequence (Q15116 21-170 Q133A) above, with N29A, A113Q counted along it

human PD-1 ECD-Fc P72A = molecular target: T30, human PD-1 ECD-Fc P72A (human, UniProt Q15116 21-170); assay: SPR, Fab on captured PD-1-Fc
T30 construct: not shown: human IgG1 Fc, residues P101-K330
T30 sequence (Q15116 21-170 P72A): as the sequence (Q15116 21-170 Q133A) above, with P52A, A113Q counted along it

T1 sequence (Q15116 21-170): as the sequence (Q15116 21-170 Q133A) above, with A113Q counted along it

- Kd [1]: 26.8 pM
- KD mutant/KD wild-type (human PD-1 ECD-Fc Q133A): 0.7 ratio
- KD mutant/KD wild-type (human PD-1 ECD-Fc P21A): 2.1 ratio
- KD mutant/KD wild-type (human PD-1 ECD-Fc N66A): 2.2 ratio
- KD mutant/KD wild-type (human PD-1 ECD-Fc Y68A): 2.2 ratio
- KD mutant/KD wild-type (human PD-1 ECD-Fc E150A): 1 ratio
- KD mutant/KD wild-type (human PD-1 ECD-Fc S157R): 1.6 ratio
- KD mutant/KD wild-type (human PD-1 ECD-Fc A132G): 53.4 ratio
- KD mutant/KD wild-type (human PD-1 ECD-Fc P158A): 1.2 ratio
- KD mutant/KD wild-type (human PD-1 ECD-Fc P156A): 1 ratio
- KD mutant/KD wild-type (human PD-1 ECD-Fc L138A): 1 ratio
- KD mutant/KD wild-type (human PD-1 ECD-Fc N102A): 1.5 ratio
- KD mutant/KD wild-type (human PD-1 ECD-Fc E84A): 1.3 ratio
- KD mutant/KD wild-type (human PD-1 ECD-Fc A40T): 2 ratio
- KD mutant/KD wild-type (human PD-1 ECD-Fc A80G): 1.2 ratio
- KD mutant/KD wild-type (human PD-1 ECD-Fc D92A): 1.2 ratio
- KD mutant/KD wild-type (human PD-1 ECD-Fc Q91A): 0.8 ratio
- KD mutant/KD wild-type (human PD-1 ECD-Fc T145A): 1.1 ratio
- KD mutant/KD wild-type (human PD-1 ECD-Fc K78A): 2.6 ratio
- KD mutant/KD wild-type (human PD-1 ECD-Fc S27A): 0.8 ratio
- KD mutant/KD wild-type (human PD-1 ECD-Fc E146A): 1.2 ratio
- KD mutant/KD wild-type (human PD-1 ECD-Fc S57A): 1.2 ratio
- KD mutant/KD wild-type (human PD-1 ECD-Fc G47A): 1.6 ratio
- KD mutant/KD wild-type (human PD-1 ECD-Fc K135A): 4.2 ratio
- KD mutant/KD wild-type (human PD-1 ECD-Fc Q75A): 1 ratio
- KD mutant/KD wild-type (human PD-1 ECD-Fc N33A): 1 ratio
- KD mutant/KD wild-type (human PD-1 ECD-Fc F56A): 1.5 ratio
- KD mutant/KD wild-type (human PD-1 ECD-Fc G124A): 0.5 ratio
- KD mutant/KD wild-type (human PD-1 ECD-Fc N49A): 1.1 ratio
- KD mutant/KD wild-type (human PD-1 ECD-Fc P72A): 1.1 ratio
B1: 12819.17149 Fab (Fab, V domains shown)
VH: EVQLLESGGGLVQPGGSLRLSCAASGFTFTRYDMVWVRQAPGKGLEWVAGIGDSNKMTRYAPAVKGRATISRDNSKNTLYLQMNSLRAEDTAVYYCAKGSCIACWDEAGRIDAWGQGTLVTVSS
VL: SYELTQDPAVSVALGQTVRITCSGGGSYDGSSYYGWYQQKPGQAPVTVIYNNNNRPSDIPDRFSGSSSGNTASLTITGAQAEDEADYYCGSYDRPETNSDYVGMFGSGTKVTVL
notes: monomeric Fab fragment

- KD mutant/KD wild-type (human PD-1 ECD-Fc Q133A): 1.4 ratio
- KD mutant/KD wild-type (human PD-1 ECD-Fc P21A): 1 ratio
- KD mutant/KD wild-type (human PD-1 ECD-Fc N66A): 2.1 ratio
- KD mutant/KD wild-type (human PD-1 ECD-Fc Y68A): 1.4 ratio
- KD mutant/KD wild-type (human PD-1 ECD-Fc E150A): 1 ratio
- KD mutant/KD wild-type (human PD-1 ECD-Fc S157R): 0.9 ratio
- KD mutant/KD wild-type (human PD-1 ECD-Fc A132G): 1.4 ratio
- KD mutant/KD wild-type (human PD-1 ECD-Fc P158A): 0.9 ratio
- KD mutant/KD wild-type (human PD-1 ECD-Fc P156A): 1.1 ratio
- KD mutant/KD wild-type (human PD-1 ECD-Fc L138A): 1.1 ratio
- KD mutant/KD wild-type (human PD-1 ECD-Fc N102A): 0.6 ratio
- KD mutant/KD wild-type (human PD-1 ECD-Fc E84A): 1 ratio
- KD mutant/KD wild-type (human PD-1 ECD-Fc A40T): 1 ratio
- KD mutant/KD wild-type (human PD-1 ECD-Fc A80G): 0.4 ratio
- KD mutant/KD wild-type (human PD-1 ECD-Fc D92A): 0.8 ratio
- KD mutant/KD wild-type (human PD-1 ECD-Fc Q91A): 1 ratio
- KD mutant/KD wild-type (human PD-1 ECD-Fc T145A): 0.7 ratio
- KD mutant/KD wild-type (human PD-1 ECD-Fc K78A): 0.7 ratio
- KD mutant/KD wild-type (human PD-1 ECD-Fc S27A): 0.8 ratio
- KD mutant/KD wild-type (human PD-1 ECD-Fc E146A): 1 ratio
- KD mutant/KD wild-type (human PD-1 ECD-Fc S57A): 1 ratio
- KD mutant/KD wild-type (human PD-1 ECD-Fc G47A): 0.5 ratio
- KD mutant/KD wild-type (human PD-1 ECD-Fc K135A): 1.1 ratio
- KD mutant/KD wild-type (human PD-1 ECD-Fc Q75A): 0.5 ratio
- KD mutant/KD wild-type (human PD-1 ECD-Fc N33A): 1.1 ratio
- KD mutant/KD wild-type (human PD-1 ECD-Fc F56A): 0.5 ratio
- KD mutant/KD wild-type (human PD-1 ECD-Fc G124A): 4 ratio
- KD mutant/KD wild-type (human PD-1 ECD-Fc N49A): 0.7 ratio
- KD mutant/KD wild-type (human PD-1 ECD-Fc P72A): 1.8 ratio
B2: 12865.17150 Fab (Fab, V domains shown)
VH: EVQLLESGGGLVQPGGSLRLSCAASGFDFSDHGMQWVRQAPGKGLEYVGVIDTTGRYTYYAPAVKGRATISRDNSKNTLYLQMNSLRAEDTAVYYCAKTTCVGGYLCNTVGSIDAWGQGTLVTVSS
VL: SYELTQDPAVSVALGQTVRITCSGGGSSSYYGWYQQKPGQAPVTVIYDDTNRPSGIPDRFSGSSSGNTASLTITGAQAEDEADYYCGGYEGSSHAGIFGSGTKVTVL
notes: monomeric Fab fragment
